Here are results for 15 molecules from patent publication US20180291096A1 (Janssen / Centocor, published 2018).

The experiment has as its target T1, recombinant human IL-23 (hrIL-23), produced at Centocor (human, UniProt P29460 23-328).
T1 sequence 1: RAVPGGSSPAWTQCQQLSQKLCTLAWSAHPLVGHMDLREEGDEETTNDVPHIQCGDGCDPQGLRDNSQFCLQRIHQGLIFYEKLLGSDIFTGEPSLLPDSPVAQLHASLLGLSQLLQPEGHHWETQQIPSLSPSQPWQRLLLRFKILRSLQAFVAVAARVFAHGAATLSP
T1 sequence 2: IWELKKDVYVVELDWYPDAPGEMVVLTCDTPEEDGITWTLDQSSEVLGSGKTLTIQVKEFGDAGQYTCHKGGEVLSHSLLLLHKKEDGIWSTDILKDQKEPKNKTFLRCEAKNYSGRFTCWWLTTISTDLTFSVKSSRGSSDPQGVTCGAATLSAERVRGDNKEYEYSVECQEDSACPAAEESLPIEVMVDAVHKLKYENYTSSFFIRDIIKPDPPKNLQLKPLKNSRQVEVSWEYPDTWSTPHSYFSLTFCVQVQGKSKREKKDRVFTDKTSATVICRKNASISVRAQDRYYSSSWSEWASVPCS
As to the kind of experiment: cell-based or functional assay.

B1: MOR05040 mAb (antibody, human IgG1, V domains shown)
VH: QVELVQSGAEVKKPGSSVKVSCKASGGTFSSNYISWVRQAPGQGLEWMGISPGTGINAYYAQKFQGRVTITADESTSTAYMELSSLRSEDTAVYYCARSKKGMYGGWTYPLMMFDLWGQGTLVTVSS
VL: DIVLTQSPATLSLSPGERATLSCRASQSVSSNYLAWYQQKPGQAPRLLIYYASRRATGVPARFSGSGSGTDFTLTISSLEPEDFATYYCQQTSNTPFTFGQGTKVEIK
For B1, the “IC50, inhibition of IL-17 production” value came out at 0.00264 µg/mL.

B2: MOR05054 mAb (antibody, human IgG1, V domains shown)
VH: QVELVESGGGLVQPGGSLRLSCAASGFTFSSFGMSWVRQAPGKGLEWVSGIEHKYLSYATLYAASVKGRFTISRDNSKNTLYLQMNSLRAEDTAVYYCARYWGTPYLMQFDNWGQGTLVTVSS
VL: DIALTQPASVSGSPGQSITISCTGTSSDVGGYNSVSWYQQHPGKAPKLMIYSVSSRPSGVSNRFSGSKSGNTASLTISGLQAEDEADYYCSSYDTNKPLVVFGGGTKLTVL
As to B2, the “IC50, inhibition of IL-17 production” value was 0.00323 µg/mL.

B3: MOR05050 mAb (antibody, human IgG1, V domains shown)
VH: QVELVESGGGLVQPGGSLRLSCAASGFTFSSFGMSWVRQAPGKGLEWVSSIEHKYTGYTTYYAAPVKGRFTISRDNSKNTLYLQMNSLRAEDTAVYYCARYWGTPYLMQFDNWGQGTLVTVSS
VL: DIALTQPASVSGSPGQSITISCTGTSSDVGGYNSVSWYQQHPGKAPKLMIYSVSSRPSGVSNRFSGSKSGNTASLTISGLQAEDEADYYCSSYDTNKPLVVFGGGTKLTVL
Turning to B3, the “IC50, inhibition of IL-17 production” value stood at 0.0277 µg/mL.

B4: MOR05047 mAb (antibody, human IgG1, V domains shown)
VH: QVELVESGGGLVQPGGSLRLSCAASGFTFSSFGMSWVRQAPGKGLEWVSNIEHKYLGYATSYAASVKGRFTISRDNSKNTLYLQMNSLRAEDTAVYYCARYWGTPYLMQFDNWGQGTLVTVSS
VL: DIALTQPASVSGSPGQSITISCTGTSSDVGGYNSVSWYQQHPGKAPKLMIYSVSSRPSGVSNRFSGSKSGNTASLTISGLQAEDEADYYCSSYDTNKPLVVFGGGTKLTVL
On to B4, for which the “IC50, inhibition of IL-17 production” value is 0.0234 µg/mL.

B5: MOR05048 mAb (antibody, human IgG1, V domains shown)
VH: QVELVESGGGLVQPGGSLRLSCAASGFTFSSFGMSWVRQAPGKGLEWVSNIEHKFMGYTTYYAAGVKGRFTISRDNSKNTLYLQMNSLRAEDTAVYYCARYWGTPYLMQFDNWGQGTLVTVSS
VL: DIALTQPASVSGSPGQSITISCTGTSSDVGGYNSVSWYQQHPGKAPKLMIYSVSSRPSGVSNRFSGSKSGNTASLTISGLQAEDEADYYCSSYDTNKPLVVFGGGTKLTVL
As to B5, the “IC50, inhibition of IL-17 production” value was 0.0162 µg/mL.

B6: MOR05052 mAb (antibody, human IgG1, V domains shown)
VH: QVELVESGGGLVQPGGSLRLSCAASGFTFSSFGMSWVRQAPGKGLEWVSSIEHKYLSYTTFYAASVKGRFTISRDNSKNTLYLQMNSLRAEDTAVYYCARYWGTPYLMQFDNWGQGTLVTVSS
VL: DIALTQPASVSGSPGQSITISCTGTSSDVGGYNSVSWYQQHPGKAPKLMIYSVSSRPSGVSNRFSGSKSGNTASLTISGLQAEDEADYYCSSYDTNKPLVVFGGGTKLTVL
In the case of B6, the “IC50, inhibition of IL-17 production” value was determined as 0.0178 µg/mL.

B7: MOR05053 mAb (antibody, human IgG1, V domains shown)
VH: QVELVESGGGLVQPGGSLRLSCAASGFTFSSFGMSWVRQAPGKGLEWVSNIEHKYTSYTTYYAASVKGRFTISRDNSKNTLYLQMNSLRAEDTAVYYCARYWGTPYLMQFDNWGQGTLVTVSS
VL: DIALTQPASVSGSPGQSITISCTGTSSDVGGYNSVSWYQQHPGKAPKLMIYSVSSRPSGVSNRFSGSKSGNTASLTISGLQAEDEADYYCSSYDTNKPLVVFGGGTKLTVL
In the case of B7, the “IC50, inhibition of IL-17 production” value turned out to be 0.00493 µg/mL.

B8: MOR04649 mAb (antibody, human IgG1, V domains shown)
VH: QVELVQSGAEVKKPGESLKISCKGSGYSFSNYWIGWVRQMPGKGLEWMGIIDPSNSYTNYSPSFQGQVTISADKSISTAYLQWSSLKASDTAMYYCARWYYKPFDVWGQGTLVTVSS
VL: DIVLTQPPSVSGAPGQRVTISCTGSSSNIGSGYDVHWYQQLPGTAPKLLIYGNSKRPSGVPDRFSGSKSGTSASLAITGLQSEDEADYYCSSWTPSSVVFGGGTKLTVL
For the molecule B8, the “IC50, inhibition of IL-17 production” value was 0.276 µg/mL.

B9: MOR05043 mAb (antibody, human IgG1, V domains shown)
VH: QVELVQSGAEVKKPGESLKISCKGSGYSFSNYWIGWVRQMPGKGLEWMGFISPDGSHTWYSPSFQGQVTISADKSISTAYLQWSSLKASDTAMYYCARWYYKPFDVWGQGTLVTVSS
VL: DIVLTQPPSVSGAPGQRVTISCTGSSSNIGSGYDVHWYQQLPGTAPKLLIYGNSKRPSGVPDRFSGSKSGTSASLAITGLQSEDEADYYCSSWTPSSVVFGGGTKLTVL
Consider B9, for which the “IC50, inhibition of IL-17 production” value was determined as 0.0144 µg/mL.

B10: MOR05059 mAb (antibody, human IgG1, V domains shown)
VH: QVELVQSGAEVKKPGESLKISCKGSGYSFSNYWIGWVRQMPGKGLEWMGIIDPSNSYTNYSPSFQGQVTISADKSISTAYLQWSSLKASDTAMYYCARWYYKPFDVWGQGTLVTVSS
VL: DIVLTQPPSVSGAPGQRVTISCTGSSSNIGSGYDVHWYQQLPGTAPKLLIYGNSKRPSGVPDRFSGSKSGTSASLAITGLQSEDEADYYCASWTDGLSLVVFGGGTKLTVL
B10: the “IC50, inhibition of IL-17 production” value amounted to 0.0106 µg/mL.

B11: MOR05058 mAb (antibody, human IgG1, V domains shown)
VH: QVELVQSGAEVKKPGESLKISCKGSGYSFSNYWIGWVRQMPGKGLEWMGIIDPSNSYTNYSPSFQGQVTISADKSISTAYLQWSSLKASDTAMYYCARWYYKPFDVWGQGTLVTVSS
VL: DIVLTQPPSVSGAPGQRVTISCTGSSSNIGSGYDVHWYQQLPGTAPKLLIYGNSKRPSGVPDRFSGSKSGTSASLAITGLQSEDEADYYCSSWTDTPNMIVFGGGTKLTVL
For the molecule B11, the “IC50, inhibition of IL-17 production” value stood at 0.00285 µg/mL.

B12: MOR05044 mAb (antibody, human IgG1, V domains shown)
VH: QVELVQSGAEVKKPGESLKISCKGSGYSFSNYWIGWVRQMPGKGLEWMGIISPSGSTTWYSPSFQGQVTISADKSISTAYLQWSSLKASDTAMYYCARWYYKPFDVWGQGTLVTVSS
VL: DIVLTQPPSVSGAPGQRVTISCTGSSSNIGSGYDVHWYQQLPGTAPKLLIYGNSKRPSGVPDRFSGSKSGTSASLAITGLQSEDEADYYCSSWTPSSVVFGGGTKLTVL
Take B12: the “IC50, inhibition of IL-17 production” value was determined as 0.0141 µg/mL.

B13: MOR05041 mAb (antibody, human IgG1, V domains shown)
VH: QVELVQSGAEVKKPGESLKISCKGSGYSFSNYWIGWVRQMPGKGLEWMGIISPTGSVTWYSPSFQGQVTISADKSISTAYLQWSSLKASDTAMYYCARWYYKPFDVWGQGTLVTVSS
VL: DIVLTQPPSVSGAPGQRVTISCTGSSSNIGSGYDVHWYQQLPGTAPKLLIYGNSKRPSGVPDRFSGSKSGTSASLAITGLQSEDEADYYCSSWTPSSVVFGGGTKLTVL
Consider B13, for which the “IC50, inhibition of IL-17 production” value is 0.00301 µg/mL.

B14: MOR05042 mAb (antibody, human IgG1, V domains shown)
VH: QVELVQSGAEVKKPGESLKISCKGSGYSFSNYWIGWVRQMPGKGLEWMGIISPTGSSTWYSPSFQGQVTISADKSISTAYLQWSSLKASDTAMYYCARWYYKPFDVWGQGTLVTVSS
VL: DIVLTQPPSVSGAPGQRVTISCTGSSSNIGSGYDVHWYQQLPGTAPKLLIYGNSKRPSGVPDRFSGSKSGTSASLAITGLQSEDEADYYCSSWTPSSVVFGGGTKLTVL
Turning to B14, the “IC50, inhibition of IL-17 production” value is 0.00127 µg/mL.

B15: MOR05045 mAb (antibody, human IgG1, V domains shown)
VH: QVELVQSGAEVKKPGESLKISCKGSGYSFSNYWIGWVRQMPGKGLEWMGIISPTGSATWYSPSFQGQVTISADKSISTAYLQWSSLKASDTAMYYCARWYYKPFDVWGQGTLVTVSS
VL: DIVLTQPPSVSGAPGQRVTISCTGSSSNIGSGYDVHWYQQLPGTAPKLLIYGNSKRPSGVPDRFSGSKSGTSASLAITGLQSEDEADYYCSSWTPSSVVFGGGTKLTVL
As to B15, the “IC50, inhibition of IL-17 production” value came to 0.0014 µg/mL.
